1 molecule from doi:10.1101/2021.03.04.433768 (bioRxiv, 2021) can be followed below.

For the test, the target named is HexaPro, a prefusion construct of the SARS-CoV-2 spike (SARS-CoV-2, Wuhan-Hu-1 reference spike …, UniProt P0DTC2, stabilised). Kind of test: negative-stain EM.

B1: Nb56 (llama nanobody, monomer) (VHH)
VHH: QVQLQESGGGLVQAGDSLRLSCVASERTFRRYGMGWFRQAPGKEREFVAAVDRSHTKTGYADFVKGRFTISTNYENMVYLQMNSLKPEDTAVYYCAAPSYEKGSDPTSWNTDRGYDYWGQGTQVTVSS
Consider B1, for which the binding result is “binds”.
